This assay has as its target acetylcholine receptor. In words: SPR, AchR immobilised on chip, peptide at 10 uM. (SPR reads the build-up and loss of mass on a sensor chip optically.)

Binding affinity, Binding affinity (RU) and SPR binding response data for 72 molecules are collected here from US20250011363A1, “OPTIMIZED SHORTENED PEPTIDE THAT BINDS TO ACETYLCHOLINE RECEPTOR, AND USE THEREOF” (SKINMED CO., LTD., priority 2021, published 2025).

B1: 6mer-2-306 (peptide)
peptide: RQFQKR
Turning to B1, the Binding affinity worked out at 141 RU.

B2: 6mer-2-285 (peptide)
peptide: RRIQRR
B2 registered a Binding affinity of 142 RU.

B3: 5mer-252 (peptide)
peptide: KQYRK
B3 displayed a Binding affinity (RU) of 53 RU.

B4: 6mer-2-287 (peptide)
peptide: RLYLKR
The molecule B4 yielded a Binding affinity of 124 RU.

B5: 6mer-2-308 (peptide)
peptide: KGISKR
Molecule B5 registered a Binding affinity of 148 RU.

B6: 6mer-2-288 (peptide)
peptide: KSRLRK
In turn, B6 gave a Binding affinity of 122 RU.

B7: 5mer-552 (peptide)
peptide: RLYSR
Molecule B7 had a Binding affinity (RU) of 63 RU.

B8: 6mer-2-315 (peptide)
peptide: RRQRRR
B8 returned a Binding affinity of 139 RU.

B9: 6mer-2-328 (peptide)
peptide: KRYQRK
B9 displayed a Binding affinity of 131 RU.

B10: 6mer-2-331 (peptide)
peptide: RWVSKK
Take B10: the Binding affinity came to 148 RU.

B11: 6mer-2-325 (peptide)
peptide: RVFSRK
In turn, B11 returned a Binding affinity of 142 RU.

B12: 6mer-2-327 (peptide)
peptide: KGLRKR
Molecule B12 had a Binding affinity of 153 RU.

B13: 5mer-254 (peptide)
peptide: KLLRK
In turn, B13 registered a Binding affinity (RU) of 87 RU.

B14: 6mer-2-309 (peptide)
peptide: KRRRRR
B14 displayed a Binding affinity of 151 RU.

B15: 6mer-2-318 (peptide)
peptide: RGIQKK
B15 came in with a Binding affinity of 145 RU.

B16: 6mer-2-283 (peptide)
peptide: KLISKR
On to B16, for which the Binding affinity turned out to be 148 RU.

B17: 6mer-2-303 (peptide)
peptide: KVFTKR
B17 came in with a Binding affinity of 126 RU.

B18: 6mer-2-333 (peptide)
peptide: KRFRRK
Regarding B18, the Binding affinity is 139 RU.

B19: 5mer-554 (peptide)
peptide: RLLSK
B19 showed a Binding affinity (RU) of 65 RU.

B20: 6mer-2-311 (peptide)
peptide: KVVTRK
In turn, B20 yielded a Binding affinity of 147 RU.

B21: 6mer-2-314 (peptide)
peptide: KQYCKK
Molecule B21 returned a Binding affinity of 127 RU.

B22: 6mer-2-284 (peptide)
peptide: KLRSKR
For B22, the Binding affinity was determined as 151 RU.

B23: 6mer-2-323 (peptide)
peptide: KVLLRK
Consider B23, for which the Binding affinity stood at 145 RU.

B24: 6mer-2-293 (peptide)
peptide: KQQSKR
B24 yielded a Binding affinity of 153 RU.

B25: 6mer-2-312 (peptide)
peptide: KWRTKR
B25: the Binding affinity worked out at 121 RU.

B26: 6mer-2-324 (peptide)
peptide: KLQSRK
Molecule B26 showed a Binding affinity of 139 RU.

B27: 5mer-258 (peptide)
peptide: KRQYK
B27 yielded a Binding affinity (RU) of 84 RU.

B28: 6mer-2-295 (peptide)
peptide: KVRYKK
Turning to B28, the Binding affinity turned out to be 145 RU.

B29: 5mer-556 (peptide)
peptide: RVIYK
B29 came in with a Binding affinity (RU) of 52 RU.

B30: 5mer-555 (peptide)
peptide: KVQCK
The molecule B30 returned a Binding affinity (RU) of 71 RU.

B31: 6mer-2-321 (peptide)
peptide: KLVSRK
Molecule B31 displayed a Binding affinity of 139 RU.

B32: 6mer-2-317 (peptide)
peptide: RGLYKR
For the molecule B32, the Binding affinity stood at 135 RU.

B33: 5mer-551 (peptide)
peptide: RWQYR
As to B33, the Binding affinity (RU) worked out at 59 RU.

B34: 5mer-256 (peptide)
peptide: RGVCK
Regarding B34, the Binding affinity (RU) was found to be 60 RU.

B35: 6mer-2-310 (peptide)
peptide: KLFQRK
Take B35: the Binding affinity was 149 RU.

B36: 6mer-2-292 (peptide)
peptide: RQLCKR
B36 gave a Binding affinity of 121 RU.

B37: 6mer-2-319 (peptide)
peptide: RSRQRK
Take B37: the Binding affinity worked out at 137 RU.

B38: 5mer-251 (peptide)
peptide: KRISK
As for B38, the Binding affinity (RU) came out at 70 RU.

B39: 5mer-553 (peptide)
peptide: KLLSR
B39 returned a Binding affinity (RU) of 72 RU.

B40: 6mer-2-305 (peptide)
peptide: KQFYKK
B40 displayed a Binding affinity of 154 RU.

B41: 6mer-2-290 (peptide)
peptide: RQLYRK
Turning to B41, the Binding affinity worked out at 135 RU.

B42: 6mer-2-313 (peptide)
peptide: RWRTKR
B42: the Binding affinity is 154 RU.

B43: 6mer-2-294 (peptide)
peptide: KLYYRR
Molecule B43 had a Binding affinity of 135 RU.

B44: 6mer-2-322 (peptide)
peptide: RRYSRR
B44 showed a Binding affinity of 148 RU.

B45: 6mer-2-299 (peptide)
peptide: RWYYRK
With B45, the Binding affinity was 141 RU.

B46: 5mer-550 (peptide)
peptide: RQQSR
The molecule B46 displayed a Binding affinity (RU) of 83 RU.

B47: 6mer-2-297 (peptide)
peptide: RSLSRR
As to B47, the Binding affinity stood at 139 RU.

B48: 6mer-2-298 (peptide)
peptide: KWICKK
Turning to B48, the Binding affinity is 149 RU.

B49: 6mer-2-291 (peptide)
peptide: RRYRKR
B49 gave a Binding affinity of 154 RU.

B50: 6mer-2-320 (peptide)
peptide: RQYRRK
Regarding B50, the Binding affinity stood at 148 RU.

B51: 6mer-2-316 (peptide)
peptide: KGIRRR
As to B51, the Binding affinity is 139 RU.

B52: 6mer-2-301 (peptide)
peptide: RQVRKR
In turn, B52 yielded a Binding affinity of 122 RU.

B53: 6mer-2-332 (peptide)
peptide: RRQYKK
For B53, the Binding affinity was 145 RU.

B54: 5mer-549 (peptide)
peptide: KWITK
In turn, B54 gave an SPR binding response of 78 RU.

B55: 6mer-2-302 (peptide)
peptide: KQICKK
Take B55: the Binding affinity was determined as 148 RU.

B56: 6mer-2-304 (peptide)
peptide: KWFYRK
Take B56: the Binding affinity came out at 144 RU.

B57: 6mer-2-326 (peptide)
peptide: RGFYKK
As for B57, the Binding affinity was determined as 142 RU.

B58: 6mer-2-300 (peptide)
peptide: RWRLKK
On to B58, for which the Binding affinity was determined as 153 RU.

B59: 6mer-2-286 (peptide)
peptide: KRRYKK
Turning to B59, the Binding affinity stood at 139 RU.

B60: 5mer-250 (peptide)
peptide: RQFSR
Molecule B60 gave a Binding affinity (RU) of 76 RU.

B61: 5mer-255 (peptide)
peptide: KQRTR
The molecule B61 gave a Binding affinity (RU) of 82 RU.

B62: 5mer-557 (peptide)
peptide: KQRRK
In turn, B62 gave a Binding affinity (RU) of 87 RU.

B63: 6mer-2-330 (peptide)
peptide: KQLRKK
Molecule B63 registered a Binding affinity of 139 RU.

B64: 5mer-253 (peptide)
peptide: RSLYR
In turn, B64 yielded a Binding affinity (RU) of 75 RU.

B65: 5mer-558 (peptide)
peptide: RWRYK
For B65, the Binding affinity (RU) is 84 RU.

B66: 5mer-249 (peptide)
peptide: RSYCR
For B66, the Binding affinity (RU) amounted to 52 RU.

B67: 6mer-2-334 (peptide)
peptide: KVILRR
B67 returned a Binding affinity of 146 RU.

B68: 6mer-2-296 (peptide)
peptide: KWYRRK
Consider B68, for which the Binding affinity is 135 RU.

B69: 6mer-2-329 (peptide)
peptide: RVYTKR
In the case of B69, the Binding affinity is 142 RU.

B70: 6mer-2-289 (peptide)
peptide: RLLQKK
Take B70: the Binding affinity turned out to be 146 RU.

B71: 5mer-257 (peptide)
peptide: RQFTR
In turn, B71 came in with a Binding affinity (RU) of 85 RU.

B72: 6mer-2-307 (peptide)
peptide: RLRSKK
The molecule B72 displayed a Binding affinity of 141 RU.
